Results as given in paper PMC9616490.

How the values were obtained:
Assay in all cases: cryo-EM structure
Conditions in all cases: remark: other sources report otherwise
[1] = target: T1, human Na-K-2Cl cotransporter-1 (hNKCC1), full-length wild type (human), P55011
T1 chain: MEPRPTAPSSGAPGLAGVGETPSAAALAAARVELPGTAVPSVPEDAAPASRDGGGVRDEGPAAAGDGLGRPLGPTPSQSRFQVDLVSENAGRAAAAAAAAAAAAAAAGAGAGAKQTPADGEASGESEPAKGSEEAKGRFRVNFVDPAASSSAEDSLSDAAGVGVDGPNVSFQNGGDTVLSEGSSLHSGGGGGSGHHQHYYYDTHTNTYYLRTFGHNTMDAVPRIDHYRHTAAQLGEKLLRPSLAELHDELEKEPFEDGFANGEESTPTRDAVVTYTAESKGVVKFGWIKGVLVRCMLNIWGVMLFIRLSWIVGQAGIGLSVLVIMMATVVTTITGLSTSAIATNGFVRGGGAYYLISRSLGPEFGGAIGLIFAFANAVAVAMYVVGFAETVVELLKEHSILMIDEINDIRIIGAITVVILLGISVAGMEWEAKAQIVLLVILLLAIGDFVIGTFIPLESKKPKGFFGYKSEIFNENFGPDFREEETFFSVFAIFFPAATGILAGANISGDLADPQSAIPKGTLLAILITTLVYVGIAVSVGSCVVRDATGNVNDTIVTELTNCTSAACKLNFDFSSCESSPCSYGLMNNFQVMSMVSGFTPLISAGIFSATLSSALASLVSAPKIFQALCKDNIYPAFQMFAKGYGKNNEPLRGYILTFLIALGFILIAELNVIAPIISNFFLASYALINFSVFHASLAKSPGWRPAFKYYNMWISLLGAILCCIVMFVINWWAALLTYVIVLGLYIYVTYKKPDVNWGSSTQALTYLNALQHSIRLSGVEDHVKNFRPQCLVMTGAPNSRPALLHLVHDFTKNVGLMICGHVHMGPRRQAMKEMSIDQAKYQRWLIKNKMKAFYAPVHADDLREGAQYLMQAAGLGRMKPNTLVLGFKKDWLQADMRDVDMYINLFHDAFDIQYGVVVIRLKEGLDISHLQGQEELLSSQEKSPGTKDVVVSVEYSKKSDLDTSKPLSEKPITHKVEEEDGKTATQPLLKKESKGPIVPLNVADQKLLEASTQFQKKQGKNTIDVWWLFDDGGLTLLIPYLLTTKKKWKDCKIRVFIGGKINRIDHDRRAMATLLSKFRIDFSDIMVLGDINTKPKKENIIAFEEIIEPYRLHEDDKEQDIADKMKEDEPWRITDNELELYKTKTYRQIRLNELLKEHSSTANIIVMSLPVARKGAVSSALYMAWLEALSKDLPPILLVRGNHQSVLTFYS

[2] = target: T1, human Na-K-2Cl cotransporter-1 …
[3] = target: T1, human Na-K-2Cl cotransporter-1 …

Measured: stoichiometry N

B1: human Na-K-2Cl cotransporter-1 (hNKCC1), full-length wild type, P55011 1-1212 (natural protein)
chain: MEPRPTAPSSGAPGLAGVGETPSAAALAAARVELPGTAVPSVPEDAAPASRDGGGVRDEGPAAAGDGLGRPLGPTPSQSRFQVDLVSENAGRAAAAAAAAAAAAAAAGAGAGAKQTPADGEASGESEPAKGSEEAKGRFRVNFVDPAASSSAEDSLSDAAGVGVDGPNVSFQNGGDTVLSEGSSLHSGGGGGSGHHQHYYYDTHTNTYYLRTFGHNTMDAVPRIDHYRHTAAQLGEKLLRPSLAELHDELEKEPFEDGFANGEESTPTRDAVVTYTAESKGVVKFGWIKGVLVRCMLNIWGVMLFIRLSWIVGQAGIGLSVLVIMMATVVTTITGLSTSAIATNGFVRGGGAYYLISRSLGPEFGGAIGLIFAFANAVAVAMYVVGFAETVVELLKEHSILMIDEINDIRIIGAITVVILLGISVAGMEWEAKAQIVLLVILLLAIGDFVIGTFIPLESKKPKGFFGYKSEIFNENFGPDFREEETFFSVFAIFFPAATGILAGANISGDLADPQSAIPKGTLLAILITTLVYVGIAVSVGSCVVRDATGNVNDTIVTELTNCTSAACKLNFDFSSCESSPCSYGLMNNFQVMSMVSGFTPLISAGIFSATLSSALASLVSAPKIFQALCKDNIYPAFQMFAKGYGKNNEPLRGYILTFLIALGFILIAELNVIAPIISNFFLASYALINFSVFHASLAKSPGWRPAFKYYNMWISLLGAILCCIVMFVINWWAALLTYVIVLGLYIYVTYKKPDVNWGSSTQALTYLNALQHSIRLSGVEDHVKNFRPQCLVMTGAPNSRPALLHLVHDFTKNVGLMICGHVHMGPRRQAMKEMSIDQAKYQRWLIKNKMKAFYAPVHADDLREGAQYLMQAAGLGRMKPNTLVLGFKKDWLQADMRDVDMYINLFHDAFDIQYGVVVIRLKEGLDISHLQGQEELLSSQEKSPGTKDVVVSVEYSKKSDLDTSKPLSEKPITHKVEEEDGKTATQPLLKKESKGPIVPLNVADQKLLEASTQFQKKQGKNTIDVWWLFDDGGLTLLIPYLLTTKKKWKDCKIRVFIGGKINRIDHDRRAMATLLSKFRIDFSDIMVLGDINTKPKKENIIAFEEIIEPYRLHEDDKEQDIADKMKEDEPWRITDNELELYKTKTYRQIRLNELLKEHSSTANIIVMSLPVARKGAVSSALYMAWLEALSKDLPPILLVRGNHQSVLTFYS
2: all assays above
